This is an account of results in patent US20240141045A1 (PRECIGEN, published 2024).

For experiment [1], the target named is T1, PD-1 Fc fusion protein (UniProt Q15116 25-167, limits assumed).
T1 construct: Antigen immobilised on the CM5 chip in all PD-1 SPR assays; also called PD-1 fused to human Fc region; PD-1-Fc antigen; not shown: human Fc region
The experiment in a line: SPR (Biacore 3000), PD-1 Fc immobilised on CM5 chip, fusion protein injected. The procedure: Surface plasma resonance (SPR) analysis was performed using Biacore3000, CM5 chip, an amine-coupling kit, 10×HBS-P running buffer and Glycine for regeneration (GE Healthcare). […] Dissociation was allowed to proceed followed by a pulse of 10 mM Glycine (pH 1.5) for regeneration of the chip surface.

Experiment [2] has as its target T1, PD-1 Fc fusion protein. Briefly: SPR (Biacore), PD1-Fc immobilised on CM5, 1:1 Langmuir model with mass transfer. On the procedure: PD1-Fc antigen and reference antigen was immobilized on Biacore CM5 surface. […] Kinetics data was evaluated for 1:1 model: Langmuir with mass transfer.
(Surface plasmon resonance follows binding to a sensor surface in real time, without labels.)

Experiment [3] has as its target T2, TGF-β1 (UniProt P01137 279-390). Briefly: cell-based or functional assay.
Experiment [4] has as its target T2, TGF-β1. Briefly: cell-based or functional assay. This is another data set of the same source.

The term Kd denotes the constant that tells how readily two partners part at equilibrium.

T2 sequence (P01137 279-390 limits assumed): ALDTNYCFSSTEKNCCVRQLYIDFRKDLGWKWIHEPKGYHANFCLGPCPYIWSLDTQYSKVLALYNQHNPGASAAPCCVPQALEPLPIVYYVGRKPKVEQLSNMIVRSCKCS
T1 sequence (Q15116 25-167 limits assumed): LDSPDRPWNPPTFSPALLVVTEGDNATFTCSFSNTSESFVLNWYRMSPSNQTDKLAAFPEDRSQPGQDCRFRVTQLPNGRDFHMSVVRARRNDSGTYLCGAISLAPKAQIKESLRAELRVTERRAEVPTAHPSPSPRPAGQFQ

B1: Anti-PD1(VH7-VL6) scFv-TGFβRII (scFv)
chain 1: QVQLVQSGVEVKKPGASVKVSCKASGYTFTNYYMYWVRQAPGQGLEWMGGINPSNGGTNFNEKFKNRVTLTTDSSTTTAYMELKSLQFDDTAVYYCARRDYRFDMGFDYWGQGTTVTVSS
chain 2: EIVLTQSPATLSLSPGERATLSCRASKGVSTSGYSYLHWYQQKPGQAPRLLIYLASYLESGVPARFSGSGSGTDFTLTISSLEPEDFAVYYCQHSRDLPLTFGGGTKVEIK
chain 3: GGGGSGGGGSIPPHVQKSVNNDMIVTDNNGAVKFPQLCKFCDVRFSTCDNQKSCMSNCSITSICEKPQEVCVAVWRKNDENITLETVCHDPKLPYHDFILEDAASPKCIMKEKKKPGETFFMCSCSSDECNDNIIFSEEYNTSNPD
In the experiment with PD-1 Fc fusion protein [1], B1 came in with a Kd of 7.77 nM.

B2: Anti-PD1 (nVL1-nVH3).IgG4 (antibody, V domains shown)
VH: QVQLVESGGGVVQPGRSLRLDCKASGITFSNSGMHWVRQAPGKGLEWVAVIWYDGSKRYYADSVKGRFTISRDNSKNTLFLQMNSLRAEDTAVYYCATNNDYWGQGTLVTVSS
VL: EIVMTQSPATLSLSPGERATLSCRASQSVSSYLAWYQQKPGQAPRLLIYDASNRATGIPARFSGSGSGTDFTLTISSLEPEDFAVYYCQQYNNWPRTFGQGTKVEIK
notes: IgG4
B2: the Kd with PD-1 Fc fusion protein [2] came to 0.0148 nM.

B3: Anti-PD1(VH6-VL5) scFv-TGFβRII (scFv)
chain 1: QVQLVESGGGVVQPGRSLRLDCKASGITFSNSGMHWVRQAPGKGLEWVAVIWYDGSKRYYADSVKGRFTISRDNSKNTLFLQMNSLRAEDTAVYYCATNDDYWGQGTLVTVSS
chain 2: EIVLTQSPATLSLSPGERATLSCRASQSVSSYLAWYQQKPGQAPRLLIYDASNRATGIPARFSGSGSGTDFTLTISSLEPEDFAVYYCQQSSNWPRTFGQGTKVEIK
chain 3: GGGGSGGGGSIPPHVQKSVNNDMIVTDNNGAVKFPQLCKFCDVRFSTCDNQKSCMSNCSITSICEKPQEVCVAVWRKNDENITLETVCHDPKLPYHDFILEDAASPKCIMKEKKKPGETFFMCSCSSDECNDNIIFSEEYNTSNPD
In the experiment with PD-1 Fc fusion protein [1], B3 gave a Kd of 19.7 nM.

B4: Anti-PD1 (nVL1-nVH3).IgG4 (S108P) (antibody, V domains shown)
VH: QVQLVESGGGVVQPGRSLRLDCKASGITFSNSGMHWVRQAPGKGLEWVAVIWYDGSKRYYADSVKGRFTISRDNSKNTLFLQMNSLRAEDTAVYYCATNNDYWGQGTLVTVSS
VL: EIVMTQSPATLSLSPGERATLSCRASQSVSSYLAWYQQKPGQAPRLLIYDASNRATGIPARFSGSGSGTDFTLTISSLEPEDFAVYYCQQYNNWPRTFGQGTKVEIK
Turning to B4, binding in the experiment with PD-1 Fc fusion protein [2] was characterised by a dissociation constant (Kd) of 0.0141 nM.

B5: Anti-PD1 (VL5-VH6).IgG4-Linker10-TGFbRII (antibody)
heavy: QVQLVESGGGVVQPGRSLRLDCKASGITFSNSGMHWVRQAPGKGLEWVAVIWYDGSKRYYADSVKGRFTISRDNSKNTLFLQMNSLRAEDTAVYYCATNDDYWGQGTLVTVSSASTKGPSVFPLAPCSRSTSESTAALGCLVKDYFPEPVTVSWNSGALTSGVHTFPAVLQSSGLYSLSSVVTVPSSSLGTKTYTCNVDHKPSNTKVDKRVESKYGPPCPSCPAPEFLGGPSVFLFPPKPKDTLMISRTPEVTCVVVDVSQEDPEVQFNWYVDGVEVHNAKTKPREEQFNSTYRVVSVLTVLHQDWLNGKEYKCKVSNKGLPSSIEKTISKAKGQPREPQVYTLPPSQEEMTKNQVSLTCLVKGFYPSDIAVEWESNGQPENNYKTTPPVLDSDGSFFLYSRLTVDKSRWQEGNVFSCSVMHEALHNHYTQKSLSLSPGKDPGVLEREDVPTTSYPNPGSIPPHVQKSVNNDMIVTDNNGAVKFPQLCKFCDVRFSTCDNQKSCMSNCSITSICEKPQEVCVAVWRKNDENITLETVCHDPKLPYHDFILEDAASPKCIMKEKKKPGETFFMCSCSSDECNDNIIFSEEYNTSNPD
light: not shown
As for B5, the “IC50, TGF-β1 neutralization activity (HEK-Blue TGF-β reporter cells)” value with TGF-β1 [3] turned out to be 0.0019 nM.

B6: Anti-PD1 (nVL1-nVH3).IgG4-TGFbRII (antibody)
heavy: QVQLVESGGGVVQPGRSLRLDCKASGITFSNSGMHWVRQAPGKGLEWVAVIWYDGSKRYYADSVKGRFTISRDNSKNTLFLQMNSLRAEDTAVYYCATNNDYWGQGTLVTVSSASTKGPSVFPLAPCSRSTSESTAALGCLVKDYFPEPVTVSWNSGALTSGVHTFPAVLQSSGLYSLSSVVTVPSSSLGTKTYTCNVDHKPSNTKVDKRVESKYGPPCPSCPAPEFLGGPSVFLFPPKPKDTLMISRTPEVTCVVVDVSQEDPEVQFNWYVDGVEVHNAKTKPREEQFNSTYRVVSVLTVLHQDWLNGKEYKCKVSNKGLPSSIEKTISKAKGQPREPQVYTLPPSQEEMTKNQVSLTCLVKGFYPSDIAVEWESNGQPENNYKTTPPVLDSDGSFFLYSRLTVDKSRWQEGNVFSCSVMHEALHNHYTQKSLSLSPGKGGGGSGGGGSIPPHVQKSVNNDMIVTDNNGAVKFPQLCKFCDVRFSTCDNQKSCMSNCSITSICEKPQEVCVAVWRKNDENITLETVCHDPKLPYHDFILEDAASPKCIMKEKKKPGETFFMCSCSSDECNDNIIFSEEYNTSNPD
light: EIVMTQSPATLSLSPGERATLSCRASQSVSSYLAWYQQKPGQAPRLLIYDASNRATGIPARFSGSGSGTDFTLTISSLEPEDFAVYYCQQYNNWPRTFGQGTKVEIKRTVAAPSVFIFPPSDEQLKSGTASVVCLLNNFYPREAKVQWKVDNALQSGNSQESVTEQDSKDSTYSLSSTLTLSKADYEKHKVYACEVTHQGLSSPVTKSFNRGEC
B6: in the experiment with PD-1 Fc fusion protein [2], binding was put at a Kd of 0.0277 nM. Moreover, in the experiment with TGF-β1 [4], the “IC50, inhibition of TGF-β1 induced reporter gene activity (HEK-Blue TGF-β cells, SEAP)” value (“IC50, inhibition” for short) was 0.0107 nM.

B7: Anti-PD1 (nVL1-nVH8).IgG4-TGFbRII (antibody)
heavy: EVQLVQSGGGVVQPGRSLRLSCAASGFTFSSYGMHWVRQAPGKGLEWVAVIWYDGSNKYYADSVKGRFTISRDNSKNTLYLQMNSLRAEDTAVYYCATNNDYWGQGTLVTVSSASTKGPSVFPLAPCSRSTSESTAALGCLVKDYFPEPVTVSWNSGALTSGVHTFPAVLQSSGLYSLSSVVTVPSSSLGTKTYTCNVDHKPSNTKVDKRVESKYGPPCPSCPAPEFLGGPSVFLFPPKPKDTLMISRTPEVTCVVVDVSQEDPEVQFNWYVDGVEVHNAKTKPREEQFNSTYRVVSVLTVLHQDWLNGKEYKCKVSNKGLPSSIEKTISKAKGQPREPQVYTLPPSQEEMTKNQVSLTCLVKGFYPSDIAVEWESNGQPENNYKTTPPVLDSDGSFFLYSRLTVDKSRWQEGNVFSCSVMHEALHNHYTQKSLSLSPGKGGGGSGGGGSIPPHVQKSVNNDMIVTDNNGAVKFPQLCKFCDVRFSTCDNQKSCMSNCSITSICEKPQEVCVAVWRKNDENITLETVCHDPKLPYHDFILEDAASPKCIMKEKKKPGETFFMCSCSSDECNDNIIFSEEYNTSNPD
light: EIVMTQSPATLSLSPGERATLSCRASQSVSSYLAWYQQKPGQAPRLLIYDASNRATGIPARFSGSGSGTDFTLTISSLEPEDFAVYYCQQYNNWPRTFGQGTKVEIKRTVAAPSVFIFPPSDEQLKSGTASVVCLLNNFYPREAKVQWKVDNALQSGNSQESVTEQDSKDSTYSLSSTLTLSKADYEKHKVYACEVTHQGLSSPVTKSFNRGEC
B7 registered a Kd with PD-1 Fc fusion protein [2] of 0.321 nM. The “IC50, inhibition” value in the experiment with TGF-β1 [4] came to 0.0545 nM.

B8: Anti-PD1 (nVL1-nVH7).IgG4-TGFbRII (antibody)
heavy: QVQLVESGGGVVQPGRSLRLDCKASGFTFSNSGMHWVRQAPGKGLEWVAVIWYDGSKRYYADSVKGRFTISRDNSKNTLFLQMNSLRAEDTAVYYCATNNDYWGQGTLVTVSSASTKGPSVFPLAPCSRSTSESTAALGCLVKDYFPEPVTVSWNSGALTSGVHTFPAVLQSSGLYSLSSVVTVPSSSLGTKTYTCNVDHKPSNTKVDKRVESKYGPPCPSCPAPEFLGGPSVFLFPPKPKDTLMISRTPEVTCVVVDVSQEDPEVQFNWYVDGVEVHNAKTKPREEQFNSTYRVVSVLTVLHQDWLNGKEYKCKVSNKGLPSSIEKTISKAKGQPREPQVYTLPPSQEEMTKNQVSLTCLVKGFYPSDIAVEWESNGQPENNYKTTPPVLDSDGSFFLYSRLTVDKSRWQEGNVFSCSVMHEALHNHYTQKSLSLSPGKGGGGSGGGGSIPPHVQKSVNNDMIVTDNNGAVKFPQLCKFCDVRFSTCDNQKSCMSNCSITSICEKPQEVCVAVWRKNDENITLETVCHDPKLPYHDFILEDAASPKCIMKEKKKPGETFFMCSCSSDECNDNIIFSEEYNTSNPD
light: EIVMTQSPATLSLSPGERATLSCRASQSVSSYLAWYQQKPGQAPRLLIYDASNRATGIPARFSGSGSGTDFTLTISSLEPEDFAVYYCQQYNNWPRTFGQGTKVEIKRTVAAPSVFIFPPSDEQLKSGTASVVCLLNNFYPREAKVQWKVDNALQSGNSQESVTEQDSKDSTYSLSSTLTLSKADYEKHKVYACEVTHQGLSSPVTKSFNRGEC
B8 gave a Kd with PD-1 Fc fusion protein [2] of 0.147 nM. The “IC50, inhibition” value in the experiment with TGF-β1 [4] was 0.0151 nM.
